From the DeepSol protein solubility set

assay: soluble on expression in E. coli; label from the status in PepcDB or PDB records

Sequence	soluble on expression in E. coli
MGIKTQKNFICLKRTFSMNLRDAISVANPVQLEEEIKHDEVVSFLKSKNLLDKPVILNVEGKKVAKNFVSSRETLGKYLGVDAYSIARELSKIEDREAEIRVEPFSSLAMKKVDVNLQELPVIKYFPRDGGRYITAGIVIAQRNGVYNASIHRMLLLDESRVAARLVPPRHTYLMWREAVEREEELEVAVVIGTHPLFLFASATRVPSGKEFSYAAGLMGRLTLYRKGEMLVPDSEIILFGRITAETAKEGPFVDITGTYDIVRDEPVIVFDEMYVKEDYIYYSITPAGKEHQMLMGVPYEPVIYRFVSNVCKVKNVITTPGSCHYFHCVVQIEKKSEGDGKNAIIAALAANPSMKGVVVVDDDIDILSYEDMEFAIATRFQPDRDLVVVKGARGSSLDPSADKTTSKWGIDATKPLGKEGFDRVVLEHHHHHH	not soluble
MSDFLKLVGENIRFLRKKRGLTQEELAEQINLQQAYIGGVERGERNISMLTLQKIAVGLEVSPDEVLNFSNVNLIDNPQREESLSIITSLLHQKNVNELQFILKFLYNFSEFVESNSNK	not soluble
MSLKGGYAVVDFKVPNERDNASTTKLEVNFPTDHPLASVMPQPVPGWKAEVTKAKPAKPLESHGKQITEVVTKVTWTADGKGVEPGYFQKFPVSIGALPEDADQLVFKAIQTYSNKEVVRWIEVPQEGQEEPETPAPVLKLSAAEDDAHGASEGHHHHHH	soluble
MSLKAPVDFEQEVAPLLSQRCVSCHSPNIKKGELSLAGPEDLLANGYVVPGDPAGSYLLEVVSPAGDDPAAMPKLGDALAEPEVALLRRWIEQGAVWPDGFVIREASKADRSWWSLQPLADIHPPEVAAAPAAWRQNPIDRFVWAKLSEANLKPNSPADRRTLIRRATFDLTGLPPTAEEIDTFVASDSPDAYPQLIDRMLASPRYGERWGRHWLDVIRFGESRGFERNQIITNLWPFRDYVIRSINEDKPFDQFIREHLAGDVIAPNTPQVEVGSAFLVAGPYDDVGNQDPAQAAQIRANTIDEMIRASSEAFLGLTIGCARCHDHKFDVISQRDYYAMYATFAGVKHGERAVATSEQREGHHHHHH	not soluble
MPAAPLCSPFPSPPPSFHTASLPFSIHAHHSPLPCDLDPPLYLAETVSLLEEWGPPSSCPMQCKLTSHPARLTHLPPCLWGFAVALKPSWAGLAPSLLPPPRMSLCRPLSFLRHQCPWLPWQAHQGLVPWSPSMVAAACIVSPSGHCRCQPFIPHVFLGHGGLTSVSGECG	soluble
MPDDEKIKLRYSPEESARLIKEEARRLGFSACGFAEAQALPPSVVGTYEKFLSEGRHGEMDYLERNRELRYSPAELLPGTRTVISVALNYYPKIKQPASAPQIAYYAYGKDYHKVVKRLLDKLLDYIRREVCPSVSGRSFSDSAPIAERYWACRAGIGWVGRSGMLILPRGGTFFFLGELLVDIDLPPDAPMPSRCGACRNCIESCPTGAISEEGMDSRLCVSYLTIEHEGEIPPELVGKLGNRFYGCDSCQLCCPWNRYAHPSEVEAFVPREALFTFDRDDLVSLDEEKYLHFFAGSPMKRAGLDGLRRNARALEQGDKKEDEQPTDEDG	not soluble
MKVGYLGPAATFTHLAVSSCFQNGAEHVAYRTIPECIDAAVAGEVDFAFVPLENALEGSVNLTIDYLIHEQPLPIVGEMTLPIHQHLLVHPSRENAWKELDKIYSHSHAIAQCHKFLHRHFPSVPYEYANSTGAAAKFVSDHPELNIGVIANDMAASTYELKIVKRDIQDYRDNHTRFVILSPDENISFEVNSKLSSRPKTTLMVMLPQDDQSGALHRVLSAFSWRNLNLSKIESRPTKTGLGHYFFIIDIEKAFDDVLIPGAMQELEALGCKVRLLGAYQSYQLMAGDPLEHHHHHH	not soluble
MGHHHHHHSHMANSAGSMANSAGSMFDGISLTEHQRQQMRDLMQQARHEQPPVNVSELETMHRLVTAENFDENAVRAQAEKMANEQIARQVEMAKVRNQMYRLLTPEQQAVLNEKHQQRMEQLRDVTQWQKSSSLKLLSSSNSRSQ	not soluble
KPAPSAEHSYAEGEGLVKVFDNAPAEFTIFAVDTKGVARTDGGDPFEVAINGPDGLVVDAKVTDNNDGTYGVVYDAPVEGNYNVNVTLRGNPIKNMPIDVKCIEGANGEDSSFGSFTFTVAAKNKKGEVKTYGGDKFEVSITGPAEEITLDAIDNQDGTYTAAYSLVGNGRFSTGVKLNGKHIEGSPFKQVLGNPGKKNPEVKSFTTTRTAN	soluble
MADEVIEYKFICPNITIYRESLQHLYTSFAKGLKCVWKTRNTSGQTFFSWEFDLNELKNQGIDGLMGRISVNSDSIDLLNVQIDLKNSTEIIERVVHLYHNNYQYGYNYIPSATFEYSFVPYYAQAEGSLYDQMFLPSHENDAILVIGKKKLHVCKAFLSYHSSFFRAIFSSTFKEGQMSEIPIKDVTYKDFALMLSTIYPDAVFPNDRTAEKLLEMGDRFIIQSVINHVEYHLLHNTKIGNEKLMWMADRYGMSKLLVKSIRQMDSIEKAKALKSSPDYAKLSKEAKEKILDRLMALI	not soluble
GTDDEEKDNNGQGSVSVETNYLPIADPYVMFYNNKYYAYGTGGTTAGEGFACFSSDDLKNWKREGQALSATDSYGTWGFWAPEVYYVESKKKFYLFYSAEEHICVATSTTPEGPFRQEVKQPIWSEKSIDTSLFIDDDGTPYLYFVRFTDGNVIWVAQMTDDLMSIKTETLNQCIKAEVSWELLQGKVAEGPSLLKKNGVYYLIYSANHYENKGYGVGYATSDTPMGPWVKYSKNPLLQGDAATGLVGTGHGAPFQCKDGSWKYIFHAHWSAAEIQPRTSYIKDFAISDQGVVTISGTVIKPRVLK	soluble
MHKLLYTCNLRCRMCPFWRRKDEKLLSLEEEVLMLKSLEKAGVLFMGFEGGEPLLRRDLEDILEESYKRFYTSLVTNGWLLKDRAKSISNYLDYLFVSIDGIGEVHDKIRGISGAFERAVEGIKEARKYLPVAISFTITKENMDQVKDVIELA	soluble
MKVIIIGGETTAYYLARSMLSRKYGVVIINKDRELCEEFAKKLKATIIHGDGSHKEILRDAEVSKNDVVVILTPRDEVNLFIAQLVMKDFGVKRVVSLVNDPGNMEIFKKMGITTVLNLTTLITNTVEALIFPDEFSSIIPLEQGIEFLSVNVEEDSPVVGKKLKDLPLPRDSIIAAIVRGGVLVVPRGDTEILSGDKLYVIVSAEAKETVEETLLGR	soluble
MIELSHEEELRYNRQIILKSVDFDGQEKLKASKMLIVGLGGLGCAASQYLAAAGVGNLTLLDFDTVSLSNLQRQVLHCDARLNMPKVESAKIALEQINPHINIETINAKLDEEKLAEIIPHFDIVLDCTDNVEIRNQLDRQCNHMKVPLISGAAIRMEGQVSVFTYEPNTPTYRDLSKLFRQNVLSCVEAGVLAPIVGIVGCIQALEAIKVRLKIGKNLCGRLLMIDGFSMNIREIKLPTNME	not soluble
MSTLLDRVPCTIVTGFLGAGKTTLLRGLLEKLDGKRLAIIVNEFGDIGIDGEILKGCGIESCPEENIVELANGCICCTVADDFQPAIEQILSRQPKVEHILIETSGLALPKPLVQAFQWPAIKSRVTVDAVVAVVDGAALAEGQVAHDMEALAAQRANDEALDHDDPVEEVFEDQVACADLIVLTKADLLDDAGLEKAKAHILEHLPKAAKIVVASNGAIDPTVLIGLGLAVEEDIENRRTHHDGELDHEHDDFDSFVIDLPAVTDPEALAARIAQTAAAENVLRIKGFIEVATKPMRLQVQAVGSRVNHYYDRPWAAGEERRSRLVVIGEKGINREKIEQMLAA	not soluble
MTNDYQQLNYLVETDDEADIIIANLVKQLNELKEILLSLDNQDLEINQVNHRTTVHNTSSNTSNNSTSNNIADGNYNSNFFHNFSKETLQTQAKRGFLLLERCSLVGLQQLELEYLNVLGRSFESHQDKINFLVNLRDLTNDHLLDTEKIVSTLEQIFNVIGGTEYTPILNSFFNQSLNDPDPIQREIGLKQFVANLRQRFKTLLQKTNNSIQQLEAEIQIPTTHIKSDEVMFGPPDMNERLVLNDSETDAILRSIEAELESALQNKKQVVVTAVPPIAANLATDSISQETLEHNLNNTETVNTTTVTVTSASETQVRKPQISLRPIFQGNFPKRLSREDIQRYAHQLQELEQSNEG	soluble
MAPTSSIEIVLDKTTASVGEIVTASINIKNITNFSGCQLNMKYDPAVLQPVTSSGVAYTKSTMPGAGTILNSDFNLRQVADNDLEKGILNFSKAYVSLDDYRTAAAPEQTGTVAVVKFKVLKEETSSISFEDTTSVPNAIDGTVLFDWNGDRIQSGYSVIQPAVINLDMTKASYITMGYDKNAAEVGEIIKATVKINKITNFSGYQVNIKYDPTVLQAVNPKTGVAYTNSSLPTSGELLVSEDYGPIVQGVHKISEGILNLSRSYTALEVYRASESPEETGTLAVVGFKVLQKKATTVVFEDSETMPNGITGTTLFNWYGNRIQSGYFVIQPGEINSAPIATLEHHHHHH	soluble
MQLRGEVTPHIGRHAFAVLAILKGMLLETLQKVFGHKSITYVLRIHSLVRRRRSNLFLEVAHLYDQRADQLSQLLIRACFNNCQFHTKILFKILNMRQSNAHPISFPNR	not soluble
MKSKKILIVGAGFSGAVIGRQLAEKGHQVHIIDQRDHIGGNSYDARDSETNVMVHVYGPHIFHTDNETVWNYINKHAEMMPYVNRVKATVNGQVFSLPINLHTINQFFSKTCSPDEARALIAEKGDSTIADPQTFEEQALRFIGKELYEAFFKGYTIKQWGMQPSELPASILKRLPVRFNYDDNYFNHKFQGMPKCGYTQMIKSILNHENIKVDLQREFIVDERTHYDHVFYSGPLDAFYGYQYGRLGYRTLDFKKFIYQGDYQGCAVMNYCSVDVPYTRITEHKYFSPWEQHDGSVCYKEYSRACEENDIPYYPIRQMGEMALLEKYLSLAENETNITFVGRLGTYRYLDMDVTIAEALKTAEVYLNSLTDNQPMPVFTVSVGHHHHHH	soluble
MFGLPMYNVWRAEQAGKAEFSKAEQNRRIKIEEAKANLEAEKLNAKAEIERAKGAAEAIRIENNSLTPTYIQYLWVRQQGSLNDKTVIYIPTEANLPLLEAGRTAGGLKRAECPTE	not soluble
MSLKEPRWRDPELPEVLAMLRHPVDPVKANAAAYLQHLCFENEGVKRRVRQLRGLPLLVALLDHPRAEVRRRACGALRNLSYGRDTDNKAAIRDCGGVPALVRLLRAARDNEVRELVTGTLWNLSSYEPLKMVIIDHGLQTLTHEVIVPHSGWEREPNEDSKPRDAEWTTVFKNTSGCLRNVSSDGAEARRRLRECEGLVDALLHALQSAVGRKDTDNKSVENCVCIMRNLSYHVHKEVPGADRYQEAEPGPLGSAVGSQRRRRDDASCFGGKKAKEEWFHQGKKDGEMDRNFDTLDLPKRTEAAKGFELLYQPEVVRLYLSLLTESRNFNTLEAAAGALQNLSAGNWMWATYIRATVRKERGLPVLVELLQSETDKVVRAVAIALRNLSLDRRNKDLIGSYAMAELVRNVRNAQAPPRPGACLEEDTVVAVLNTIHEIVSDSLDNARSLLQARGVPALVALVASSQSVREAKAASHVLQTVWSYKELRGTLQKDGWTKARFQSAAATAKGPKEGHHHHHH	not soluble
MGSDKIHHHHHHMKRACVIGAGFGGLALAIRLQSGGVQTTLIEARDKPGGRAYFWEKDGFTFDGGPTVITDPACLEELWALKGHRMADDVELMPVMPFYRLNWADGTNFDYSNDDASLRAEIAKLEPADVAGYDDFLRYSAGVFEEGYVKLGAVPFLDFASMIKAAPALARYQAWRSVYSMVSSFVRNEKLREAFSFHTLLVGGNPMTTSAIYALIHKLEKDGGVWWAKGGTNRLIEGMVTHFRRIGGEVRIGDPVTRVETLGTRVTGVETRSGWSGKFDAVASNADVMHSYRDLLSDNSHAKRRAKSLGKKRFSPSLFVVHFGIEGTWPGIPHHMILFGPRYKGLLDDIYTHGVLPQDFSIYLHHPTVTDPSVAPEGMSTFYALVPVANMGKLPVNWDEVGPILEKRILDEVGRRLIPDIHTRIVTKFHYAPSDFSTDLSAHLGSAFSLEPLLTQSAWFRAHNRDDAISNFYLVGAGTHPGAGIPGVVGSAKATARLMLEDLS	not soluble
